Experimental data: paper PMC4580983 (Nature Communications, 2015)
Values belong to the binder of their own block, whether it stands above or below them.

Assays:
PF4 tetramer (human PF4) = target: T1, PF4 tetramer (human PF4) (human, UniProt P02776); test: crystal structure; KKO-Fab (5 mg/ml) mixed with hPF4, on ice overnight; hanging drop, 16 °C, 7% PEG6000, 0.1 M Tris-HCl pH 7.8; 4.10 Å; details: both partners purified
T1 construct: platelet factor 4 (PF4), human, wild type, same construct as m1, as the tetramer; Same protein as m1; also called hPF4 tetramer

[1] = target: T2, wild-type human platelet factor 4 (hPF4) (human, UniProt P02776); test: ELISA; Immulon 4 HBX plates coated overnight with PF4 or PF4 mutant at 5 ug/ml, blocked with 1% BSA in PBS; antibody in solution; A405; details: both partners purified
T2 construct: platelet factor 4 (PF4), human, wild type, expressed from plasmid pMT/BiP/V5-His; Probably the mature 70-residue PF4 behind the BiP signal of the vector; also called wtPF4; rPF4

[2] = target: the molecule itself; test: crystal structure; hPF4 (7 mg/ml) with six-fold molar excess fondaparinux in PBS and 0.3 M NaCl; hanging drop, 16 °C, 2% PEG4000, 17% MPD, 0.1 M sodium acetate pH 5.6; 2.50 Å

binding result (PF4 tetramer (human PF4)): binds
B1: KKO-Fab (Fab fragment of the murine monoclonal HIT-like anti-PF4 antibody KKO) (Fab, V domains shown)
VH: VQLQQSGAELVKPGASVKLSCKASGYTFTNYFIYWVKQRPGQGLEWIGEINPRNGDTDFNEKFESRATLTVDKSSSTAYMQLSSLTSEDSAIYYCTRSPYGNNYGFTYWGQGTLVTVSA
VL: DIQMIQSQKFMSTSVGDRVTVTCKASQNVGTNVAWYQQKPGQSPNALIYSASYRYSGVPDRFTGSGSGTDFTLTITNVQSEDLADYFCQQYNSYPLTFGTGTKLDLK
notes: From murine IgG2b kappa KKO

binding result [1]: binds
B2: KKO (murine anti-human PF4 IgG2bκ monoclonal antibody) (antibody, V domains shown)
VH: VQLQQSGAELVKPGASVKLSCKASGYTFTNYFIYWVKQRPGQGLEWIGEINPRNGDTDFNEKFESRATLTVDKSSSTAYMQLSSLTSEDSAIYYCTRSPYGNNYGFTYWGQGTLVTVSA
VL: DIQMIQSQKFMSTSVGDRVTVTCKASQNVGTNVAWYQQKPGQSPNALIYSASYRYSGVPDRFTGSGSGTDFTLTITNVQSEDLADYFCQQYNSYPLTFGTGTKLDLK
notes: Fab part as the heavy chain of m3 (PDB 4R97, PDB 4R9Y); as the light chain of m3 (PDB 4R97, PDB 4R9Y); IgG2b kappa, whole IgG; also called HIT antibody KKO; HIT-like antibody KKO; source: purified from conditioned PFHM-II media (protein A-agarose); copies: 2 + 2

B3: wild-type human platelet factor 4 (hPF4) (natural protein)
chain: EAEEDGDLQCLCVKTTSQVRPRHITSLEVIKAGPHCPTAQLIATLKNGRKICLDLQAPLYKKIIKKLLES
notes: platelet factor 4 (PF4), human, wild type, expressed from plasmid pMT/BiP/V5-His; Probably the mature 70-residue PF4 behind the BiP signal of the vector; also called wtPF4; rPF4
stoichiometry N [2]: 4
